# Reference: patent US20230277625A1 (SIMCHA IL 18, published 2023)
# T1: Mouse IL-18BP (amino acids 31-194), biotinylated (mouse, UniProt Q9Z0M9 29-193, biotin on the AviTag (BirA ligase))
# T1 construct: also called mIL-18BP
# T1 sequence: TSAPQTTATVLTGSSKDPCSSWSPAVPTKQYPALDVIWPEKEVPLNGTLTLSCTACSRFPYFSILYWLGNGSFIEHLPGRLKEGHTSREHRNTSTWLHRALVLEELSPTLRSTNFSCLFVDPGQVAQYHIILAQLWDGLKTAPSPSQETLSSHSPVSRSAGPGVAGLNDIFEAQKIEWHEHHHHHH
# T2: Mouse IL-18Rα ectodomain (amino acids 19-329), biotinylated (mouse, UniProt Q61098 19-329, biotin on the AviTag (BirA ligase))
# T2 construct: range 19-329; Secreted from Expi293 cells (H7 signal peptide removed); also called mIL-18Rα; mIL18Ra
# T2 sequence: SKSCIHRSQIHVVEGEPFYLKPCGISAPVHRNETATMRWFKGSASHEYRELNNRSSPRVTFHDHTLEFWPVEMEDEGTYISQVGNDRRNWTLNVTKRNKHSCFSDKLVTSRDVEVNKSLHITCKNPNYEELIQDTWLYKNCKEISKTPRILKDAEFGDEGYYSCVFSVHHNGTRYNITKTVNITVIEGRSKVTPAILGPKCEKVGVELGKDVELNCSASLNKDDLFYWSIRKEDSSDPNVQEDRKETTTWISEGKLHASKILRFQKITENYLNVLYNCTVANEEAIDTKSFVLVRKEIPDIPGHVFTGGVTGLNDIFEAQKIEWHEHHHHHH
# B1: SEQ ID NO: 61 (murine DR-IL-18 variant mCS2) (ligand)
# chain: HFGRLHCTTAVIRNINDQVLFVDKRQPVFEDMTDIDQSASEPQTRLIIYAYGDSRARGKAVTLSVKDSKMSTLSCKNKIISFEEMDPPENIDDIQSDLIFFQKRVPGHNKMEFESSLYEGHFLACQKEDDAFKLILKKKDENGDKSVMFTLTNLHQS
# notes: Engineered variant
# What was measured:
# [1] = biological target: T1, Mouse IL-18BP (amino acids 31-194), …; test: SPR; KD ratio relative to WT IL-18; SPR; ratio normalized to WT
# Experimental: (§1) Experiments were conducted using a Biacore T100 and carried out at 25° C. Biotinylated IL-18Rα or IL-18BP were immobilized onto a Biacore biotin capture chip (Series S CAP sensor chip, GE Healthcare) to yield an Rmax of ˜50 RU (IL-18Rα) or ˜10 RU (IL-18BP). Measurements were made with serial dilutions of the IL-18 variants in HEPES buffered Saline-P+buffer (10 mM HEPES pH 7.4, 150 mM NaCl, 0.005% surfactant P20). The surface was regenerated by three 60-sec injections of regeneration buffer (3/4 (v/v) 8M guanidine hydrochloride with 1/4 (v/v) 1M sodium hydroxide). Experiments were performed in multiple channels simultaneously for increased observations. All data were analyzed with the Biacore T100 evaluation software version 2.0 with a 1:1 Langmuir binding model.
# [2] = biological target: T1, Mouse IL-18BP (amino acids 31-194), …; test: on-yeast binding isotherms; KD ratio relative to WT IL-18; yeast-displayed variant; ratio normalized to WT, from the 10 µM placeholder
# Experimental: (§2) Individual colonies of IL-18 yeast were grown overnight at 30° C. in SDCAA liquid media and induced in SGCAA liquid media for 1 day at 20° C. IL-18 display levels on yeast were verified by flow cytometry using an anti-cMyc tag antibody (anti-myc-PE; Cell Signaling Technologies). Receptor staining with biotinylated IL-18Rα (with or without IL-18R β) or biotinylated IL-18BP was performed in PBS supplemented with 0.5% BSA and 2 mM EDTA (PBE) on ice. All analysis was performed on a Sony SA3800 flow cytometer.
# [3] = biological target: T1, Mouse IL-18BP (amino acids 31-194), …; test: SPR; KD for IL-18BP over KD for IL-18Rα; SPR; ratio of two measured KD
# Experimental: as §1
# [4] = biological target: T1, Mouse IL-18BP (amino acids 31-194), …; test: SPR, immobilized biotinylated mIL-18BP, mCS2 as analyte; traces stay at or below about 2 RU during the injection (0 to about 180 s) on a 0-40 RU axis
# Experimental: as §1
# [5] = biological target: T2, Mouse IL-18Rα ectodomain (amino acids …); test: SPR
# [6] = biological target: T1, Mouse IL-18BP (amino acids 31-194), …; test: SPR; KD(IL-18BP)/KD(IL-18Rα) normalized to WT IL-18
# [7] = biological target: T1, Mouse IL-18BP (amino acids 31-194), …; test: yeast binding isotherms and SPR; members per FIG. 11A legend
# Experimental: as §2, §1
# [8] = biological target: T2, Mouse IL-18Rα ectodomain (amino acids …); test: on-yeast binding isotherm (flow cytometry)
# Experimental: as §2
# [9] = biological target: T1, Mouse IL-18BP (amino acids 31-194), …; test: SPR (Biacore T100), IL-18BP captured via biotin, IL-18 as analyte; SPR, soluble variant
# Experimental: as §1
# [10] = biological target: T2, Mouse IL-18Rα ectodomain (amino acids …); test: SPR (Biacore T100), receptor captured via biotin, IL-18 as analyte
# Experimental: as §1
# [11] = biological target: T1, Mouse IL-18BP (amino acids 31-194), …; test: on-yeast binding isotherms; 10 µM used for NBD; yeast-displayed variant; ratio computed with 10 µM put in for NBD
# Experimental: as §2
binder,measurement,setting,value
B1,Dissociation Constant Ratio normalized to WT IL-18,[1],7.25e+07
same,Dissociation Constant Ratio normalized to WT IL-18,[2],> 4690
same,KD ratio IL-18BP/IL-18Rα,[3],133000
same,Kd,[4],> 10000 nM
same,Kd,[5],0.08 nM
same,IL-18 BP:Rα Dissociation Constant Ratio,[6],> 7.5e+07
same,Kd,[7],> 1000 nM
same,Kd,[8],11.3 nM
same,Kd,[9],10500 nM
same,Kd,[10],0.079 nM
same,KD ratio IL-18BP/IL-18Rα,[11],> 885
